Data taken from IntAct's records for PubMed 18772386.

B1: Mpv17-like protein (Mus musculus), Q99MS3-1 (parent)
chain: MASWWRAFPQAARRYPWPTNVLLYAGLFSAGDALQQRLRGGPADWRQTRRVATLAVTFHGNFNYVWLRLLERALPGRAPRTVLAKVLCDQTVGGPIALSAFYVGMSVLQGKDDIFLDLKQKFWNTYKSGLMYWPFVQLTNFSLVPVHWRTAYTGLCAFLWATFLCFSQQSGDGTLQSIFIFLRRKEASDKSPEK
partner: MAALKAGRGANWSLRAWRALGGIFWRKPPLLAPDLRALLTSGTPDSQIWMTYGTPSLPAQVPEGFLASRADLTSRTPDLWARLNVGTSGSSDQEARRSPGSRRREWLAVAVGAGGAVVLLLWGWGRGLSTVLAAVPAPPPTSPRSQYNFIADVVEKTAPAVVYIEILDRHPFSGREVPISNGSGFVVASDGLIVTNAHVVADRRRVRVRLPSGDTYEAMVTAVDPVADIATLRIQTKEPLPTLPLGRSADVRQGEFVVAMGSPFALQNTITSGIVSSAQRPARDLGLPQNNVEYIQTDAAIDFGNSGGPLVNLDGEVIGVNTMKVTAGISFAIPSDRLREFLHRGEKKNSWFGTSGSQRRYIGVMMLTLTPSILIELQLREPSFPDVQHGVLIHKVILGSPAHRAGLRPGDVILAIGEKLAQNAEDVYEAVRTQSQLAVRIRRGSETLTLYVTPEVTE

Variants of: B1
Conditions: with htra2_mouse Htra2, Q9JIY5

Row | effect of a mutation on the interaction | Variant
1 | decreasing interaction | D112A;I114A
